Some targets named below: S309; BD55–5840; DXP-604.
Common to all, as to assay: SPR
For orientation: In SPR one partner is held on a chip, and binding of the other changes the refractive index at the surface.

The target of assay [1] is SARS-CoV-2 Spike RBD, original (Wuhan) strain (SARS-CoV-2, original Wuhan strain) (UniProt P0DTC2).
Assay [2] deals with Inverse folding design from the DXP-604 starting point (Table 5, design row 1, the 5th table, row 4).
In assay [3] the target is Inverse folding design from the DXP-604 starting point (Table 5, design row 3, the 5th table, row 6).
For assay [4], the target named is Inverse folding design from the DXP-604 starting point (Table 5, design row 7, the 5th table, row 10).
Assay [5] addresses Inverse folding design from the DXP-604 starting point (Table 5, design row 4, the 5th table, row 7).
Assay [6] addresses Inverse folding design from the DXP-604 starting point (Table 5, design row 6, the 5th table, row 9).
The target in assay [7] is Efficient evolution design from the S309 starting point (Table 4, design row 1, the 4th table, row 4).
Assay [8] concerns the target Inverse folding design from the DXP-604 starting point (Table 5, design row 2, the 5th table, row 5).
Assay [9] deals with OAS scanning design from the DXP-604 starting point (Table 2, 1st design row, the 2nd table, row 8).
Assay [10] addresses Inverse folding design from the DXP-604 starting point (Table 5, design row 5, the 5th table, row 8).
Assay [11] addresses Inverse folding design from the LY-CoV1404 starting point (Table 5, design row 2, the 5th table, row 13).
The target of assay [12] is Efficient evolution design from the S309 starting point (Table 4, design row 5, the 4th table, row 8).
The target in assay [13] is Inverse folding design from the LY-CoV1404 starting point (Table 5, design row 1, the 5th table, row 12).
The target in assay [14] is Efficient evolution design from the S309 starting point (Table 4, design row 2, the 4th table, row 5).
Assay [15] has as its target OAS scanning design from the DXP-604 starting point (Table 2, 2nd design row, the 2nd table, row 9).
Assay [16] has as its target Efficient evolution design from the S309 starting point (Table 4, design row 6, the 4th table, row 9).
Assay [17] addresses Efficient evolution design from the S309 starting point (Table 4, design row 3, the 4th table, row 6).

The pKD is −log10 of the KD, conventionally taken in molar units. Low readings indicate a large KD, high ones a small KD.

Turning to DXP-604 (antibody), in assay [1], the pKD was 9.67 -log10(KD).

In the case of “SARS-CoV-2 Spike RBD, XBB.1 strain (from UniProt P0DTC2) (domain or fragment)”, the pKD is 5.78 -log10(KD) in assay [2]; 5.12 -log10(KD) in [3]; 6.15 -log10(KD) in [4]; 5.84 -log10(KD) in assay [5]; 6.37 -log10(KD) in assay [6]; 8.93 -log10(KD) in the assay with S309. Moreover, the negative logarithm of the KD (pKD) in assay [7] is 8.7 -log10(KD); in assay [8], 5.99 -log10(KD); in assay [9], 5.35 -log10(KD); in assay [10], 5.91 -log10(KD).

As to “SARS-CoV-2 Spike RBD, XBB.1.5 strain (from UniProt P0DTC2) (domain or fragment)”, the pKD in [11] is 4.88 -log10(KD); with BD55–5840, 6.14 -log10(KD); with DXP-604, 5.84 -log10(KD); in [7], 8.89 -log10(KD); in [12] it was 9.12 -log10(KD); in [9], 5.87 -log10(KD). In addition, the results for the negative-log KD (pKD) in assay [13] and in [14] were 4.87 -log10(KD) and 8.93 -log10(KD), respectively.

In the case of “SARS-CoV-2 Spike RBD, original (Wuhan) strain (from UniProt P0DTC2) (domain or fragment)”, the pKD in [15] is 9.38 -log10(KD); in assay [16] it was 8.7 -log10(KD); in assay [17], 8.7 -log10(KD); in assay [7] it was 8.7 -log10(KD); in [9], 9.07 -log10(KD).

The values are drawn from article PMC12164381.
